Holding throughout (experiment): UV-ligand exchange, anti-b2m ELISA; exchange yield grade (+ >10%, ++ >20%, +++ >50, ++++ >75%)
One assay concerns the target HLA-A*03:01 (human).
The next assay addresses HLA-B*44:02 (human).
The target in a further assay is HLA-A*01:01 (human). To be noted: remark: other sources report otherwise.

Like-named read-outs stand apart in the source and are kept apart here.

KITDFGLAK (modifications not checked) showed a peptide exchange yield in the assay with HLA-A*03:01 (human) of 20 to 50%. AEGGKVPIKW (modifications not checked): the peptide exchange yield in the assay with HLA-B*44:02 (human) fell in the range of 50 to 75%. In the assay with HLA-A*01:01 (human), ITEKNSGLY showed a peptide exchange yield of 50 to 75%.

QQATPGPAY yielded a peptide exchange yield in the assay with HLA-B*44:02 (human) (remark: other sources report otherwise) of 20 to 50%.
